Experimental data as given in patent US10287340B2, “Anti-HIV domain antibodies and method of making and using same” (priority 2008, dated 2019).
Entries after “also recorded” stand apart in the source; their conditions may differ. Where two headings read alike, the source gives them in different places.

What was measured:
[1] = test system: Viruses pseudotyped with HIV-1 Envs; assay: Pseudovirus neutralization assay; assay type: cell-based; conditions: for neutralizing activity compared to m36: side by side in the same experiment
[2] = biological target: gp120Bal-CD4; assay: Binding ELISA to gp120Bal-CD4 (Example 3); design: species or system HIV-1
[3] = biological target: serum albumin from mouse (MSA) (Mus musculus, UniProt P07724); assay: Binding of m36SAbp to mouse serum albumin; conditions: data not shown
Chain of serum albumin from mouse (MSA) (P07724 25-608): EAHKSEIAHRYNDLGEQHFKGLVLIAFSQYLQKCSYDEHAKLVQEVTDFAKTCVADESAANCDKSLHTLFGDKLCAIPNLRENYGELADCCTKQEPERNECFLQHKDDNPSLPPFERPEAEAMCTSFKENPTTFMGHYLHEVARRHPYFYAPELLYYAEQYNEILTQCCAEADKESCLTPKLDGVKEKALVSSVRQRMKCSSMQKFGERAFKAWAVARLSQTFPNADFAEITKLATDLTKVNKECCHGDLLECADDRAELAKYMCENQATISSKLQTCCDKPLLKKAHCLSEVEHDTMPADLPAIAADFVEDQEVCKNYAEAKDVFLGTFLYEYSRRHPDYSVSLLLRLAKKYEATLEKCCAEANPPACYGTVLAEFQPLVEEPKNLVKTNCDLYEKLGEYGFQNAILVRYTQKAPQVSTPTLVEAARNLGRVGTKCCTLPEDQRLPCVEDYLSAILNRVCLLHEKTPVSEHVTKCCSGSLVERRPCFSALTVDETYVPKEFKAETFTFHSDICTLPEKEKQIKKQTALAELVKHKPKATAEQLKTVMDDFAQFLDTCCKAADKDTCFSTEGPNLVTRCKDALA

[4] = biological target: serum albumin from human (HSA) (Homo sapiens, UniProt P02768); assay: Binding of m36SAbp to human serum albumin; conditions: data not shown
[5] = biological target: serum albumin from bovine (BSA) (Bos taurus, UniProt P02769); assay: Binding of m36SAbp to bovine serum albumin; conditions: data not shown
Chain of serum albumin from bovine (BSA) (P02769 25-607): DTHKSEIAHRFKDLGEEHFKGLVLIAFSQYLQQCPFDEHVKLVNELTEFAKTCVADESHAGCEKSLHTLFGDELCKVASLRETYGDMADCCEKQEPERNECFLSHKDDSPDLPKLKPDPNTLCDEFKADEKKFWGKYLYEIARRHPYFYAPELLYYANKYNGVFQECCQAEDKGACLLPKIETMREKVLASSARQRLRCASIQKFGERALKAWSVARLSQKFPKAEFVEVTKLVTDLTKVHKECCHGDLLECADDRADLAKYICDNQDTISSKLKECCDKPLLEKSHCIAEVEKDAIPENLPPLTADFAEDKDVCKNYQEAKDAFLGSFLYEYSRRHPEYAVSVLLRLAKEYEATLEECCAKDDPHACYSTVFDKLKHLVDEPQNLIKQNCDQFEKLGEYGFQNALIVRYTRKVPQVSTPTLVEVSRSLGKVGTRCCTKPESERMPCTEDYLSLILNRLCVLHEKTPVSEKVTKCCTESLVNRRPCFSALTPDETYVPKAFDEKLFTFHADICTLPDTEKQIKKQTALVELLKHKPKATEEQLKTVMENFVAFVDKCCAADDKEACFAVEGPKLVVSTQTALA

[6] = biological target: BSA (Bos taurus, UniProt P02769); assay: Binding ELISA to BSA (unrelated antigen)
Chain of BSA (P02769 25-607): as above

[7] = test system: gp120Bal; assay: ELISA binding to gp120 alone; design: species or system HIV-1; conditions: without CD4
[8] = test system: gp140 from a clade C isolate GXC-44 (gp140GXC-44); assay: Binding ELISA to gp140GXC-44; design: species or system HIV-1
[9] = Size exclusion chromatography, oligomerization; conditions: Superdex75, PBS
[10] = test system: tethered gp140 from 89.6
Chain of tethered gp140 from 89.6 (Q73372 32-496 limits assumed): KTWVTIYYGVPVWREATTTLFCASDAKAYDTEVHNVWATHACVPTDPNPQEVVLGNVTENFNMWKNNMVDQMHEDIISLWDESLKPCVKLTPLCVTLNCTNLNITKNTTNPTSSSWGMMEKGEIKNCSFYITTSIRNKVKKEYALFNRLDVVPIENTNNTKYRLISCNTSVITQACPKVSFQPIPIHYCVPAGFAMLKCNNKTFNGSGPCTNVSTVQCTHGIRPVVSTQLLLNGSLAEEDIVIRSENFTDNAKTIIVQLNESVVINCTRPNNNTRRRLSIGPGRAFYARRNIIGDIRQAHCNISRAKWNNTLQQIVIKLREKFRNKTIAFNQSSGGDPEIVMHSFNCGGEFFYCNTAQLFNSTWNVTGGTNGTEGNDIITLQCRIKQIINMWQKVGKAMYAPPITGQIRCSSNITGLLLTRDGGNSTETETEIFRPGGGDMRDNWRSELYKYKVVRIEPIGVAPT

[11] = test system: gp140GXC-44; assay: Competition ELISA on gp140GXC-44; assay type: binding, HIV-1; conditions: in the absence of CD4
Experimental: (§1) Antigens were coated and blocked as described above. […] Mixtures were subsequently added to each well and incubated. Bound m36 was detected and the assay was developed as described above.

[12] = test system: gp120Bal-CD4; assay: Competition ELISA on gp120Bal-CD4; assay type: binding, HIV-1
Experimental: as §1

[13] = Storage of VH protein solutions at 4° C., precipitation; assay type: physicochemical; conditions: stored at 4° C. for 4 weeks
[14] = biological target: soluble CD4 (sCD4) (Homo sapiens, UniProt P01730); assay: ELISA binding to CD4 alone

B1: m36c2Fc: m36 joined with human IgG1 Fc by a camel IgG2 hinge (protein)
chain: QVQLVQSGGGLVQPGGSLRLSCAASAFDFSDYEMSWVRQAPGKGLEWIGEINDSGNTIYNPSLKSRVTISRDNSKNTLYLQMNTLRAEDTAIYYCAIYGGNSGGEYWGQGTLVTVSSEPKIPQPQPKPQPQPQPQPKPQPKPEPECTCPKCP
modifications: left off: a dimerising Fc or GST
notes: m36 joined with human IgG1 Fc by a camel IgG2 hinge
- number of isolates neutralized [1]: five isolates
- potency against 89.6 compared to m36 [1]: higher than that of m36
- potency compared to m36h1Fc [1]: did not exhibit higher potency
- EC50 [2]: ~0.5 nM

B2: m36SAbp: m36 fused to a serum albumin binding peptide (SAbp), MW~18 kDa (protein)
chain: QVQLVQSGGGLVQPGGSLRLSCAASAFDFSDYEMSWVRQAPGKGLEWIGEINDSGNTIYNPSLKSRVTISRDNSKNTLYLQMNTLRAEDTAIYYCAIYGGNSGGEYWGQGTLVTVSSQRHPEDICLPRWGCLWGDDD
modifications: left off: small tags and cut ends
- neutralizing activity compared to m36 [1]: slight but not significant decrease; also recorded: about the same neutralizing activity
- binding to serum albumin [3]: binds
- binding to gp120Bal-CD4 compared to m36 [2]: comparable to that of m36
- binding to serum albumin [4]: binds
- binding to serum albumin [5]: binds

B3: m36h3Fc: m36 joined with human IgG1 Fc by a human IgG3 hinge (protein)
chain: QVQLVQSGGGLVQPGGSLRLSCAASAFDFSDYEMSWVRQAPGKGLEWIGEINDSGNTIYNPSLKSRVTISRDNSKNTLYLQMNTLRAEDTAIYYCAIYGGNSGGEYWGQGTLVTVSSELKTPLGDTTHTCPRCPEPKSCDTPPPCPRCP
modifications: left off: a dimerising Fc or GST
notes: m36 joined with human IgG1 Fc by a human IgG3 hinge
- number of isolates neutralized [1]: five isolates
- potency against 89.6 compared to m36 [1]: higher than that of m36
- potency compared to m36h1Fc [1]: did not exhibit higher potency
- EC50 [2]: ~0.5 nM

B4: m36: human VH domain antibody (dAb) on m0 scaffold targeting CD4i epitope of HIV-1 gp120; CDR3 AIYGGNSGGEY (protein)
VHH: QVQLVQSGGGLVQPGGSLRLSCAASAFDFSDYEMSWVRQAPGKGLEWIGEINDSGNTIYNPSLKSRVTISRDNSKNTLYLQMNTLRAEDTAIYYCAIYGGNSGGEYWGQGTLVTVSS
- inhibition of the isolate from clade C ([1]; at 667 nM): 100%
- isolates completely (100%) inhibited ([1]; at 667 nM, 7 clade B isolates in panel): 4 out of 7
- neutralization of the clade E isolate GXE ([1]; at concentrations up to 667 nM): did not neutralize
- potency compared to peptide C34 ([1]; average over panel): on average more potent
- neutralization potency compared to scFv m9 ([1]; average, six clade B, one clade C, one clade A isolate, IC50s on molar basis): two-fold higher
- cross-reactivity against HIV-1 isolates ([1]; clade A, B, C, and D): cross-reactive
- neutralization activity compared to scFv m9 ([1]; clade B isolate 89.6 and clade-D isolate Z2Z6): lower neutralization activity
- IC90 ([1]; clade C isolate GXC-44 and clade B isolate NL4-3): very low IC90s
- binding to BSA [6]: not to gp120Bal or to soluble CD4 (sCD4) and BSA
- binding to gp120 alone [7]: not to gp120Bal or to soluble CD4 (sCD4) and BSA
- binding to gp140GXC-44 ([8]; gp140GXC-44 alone): did bind although weaker
- binding to gp140GXC-44 ([8]; in the presence of sCD4): bound
- oligomeric state [9]: monomeric
- binding to tethered gp140 from 89.6 ([10]; after gp140 bound to CD4): enhanced
- binding to tethered gp140 from 89.6 ([10]; without complexation with CD4): bound
- competition with m14 for binding to gp140GXC-44 [11]: competed
- competition with CD4bs antibody m14 for binding to gp120Bal-CD4 [12]: not with the CD4 binding site (CD4bs) antibody m14
- competition with CD4i antibody m16 for binding to gp120Bal-CD4 [12]: competed
- precipitation on storage [13]: no precipitation
- binding to CD4 alone [14]: not to gp120Bal or to soluble CD4 (sCD4) and BSA
- binding to CD4 alone ([14]; listed as b5): neither gp120 nor CD4 alone

B5: m36CH3: m36 fused to human IgG1 CH3 domain without linker, MW~60 kDa (protein)
VHH: B4 VHH
modifications: left off: a dimerising Fc or GST; small tags and cut ends
notes: m36 fused to human IgG1 CH3 domain without linker, MW~60 kDa
- isolates with loss of neutralization compared to m36 ([1]; 10 isolates): 7 of 10
- IC50s compared to the corresponding ones for m36 ([1]; IIIB, 89.6 and NL4-3): significantly higher
- neutralizing activity compared to m36 [1]: significantly weaker
- binding to gp120Bal-CD4 compared to m36 [2]: comparable to that of m36

B6: m36b0Fc: m36 fused to human IgG1 Fc without peptide linker, MW~80 kDa (protein)
VHH: B4 VHH
modifications: left off: a dimerising Fc or GST
notes: m36 fused to human IgG1 Fc without peptide linker, MW~80 kDa
- inhibitory activity against 89.6 and NL4-3 [1]: decreased inhibitory activity
- neutralization of TCLA isolate IIIB [1]: lost neutralization
- binding to gp120Bal-CD4 compared to m36 [2]: bound slightly better
